B1: Carboxypeptidase N catalytic chain (protein)
chain: VTFRHHRYDDLVRTLYKVQNECPGITRVYSIGRSVEGRHLYVLEFSDHPGIHEPLEPEVKYVGNMHGNEALGRELMLQLSEFLCEEFRNRNQRIVQLIQDTRIHILPSMNPDGYEVAAAQGPNKPGYLVGRNNANGVDLNRNFPDLNTYIYYNEKYGGPNHHLPLPDNWKSQVEPETRAVIRWMHSFNFVLSANLHGGAVVANYPYDKSFEHRVRGVRRTASTPTPDDKLFQKLAKVYSYAHGWMFQGWNCGDYFPDGITNGASWYSLSKGMQDFNYLHTNCFEITLELSCDKFPPEEELQREWLGNREALIQFLEQVHQGIKGMVLDENYNNLANAVISVSGINHDVTSGDHGDYFRLLLPGIYTVSATAPGYDPETVTVTVGPAEPTLVNFHLKRSIPQVSPVRRAPSRRHGVRAKVQPQARKKEMEMRQLQRGPA
B2: Isoform 2 of Haptoglobin-related protein (protein)
chain: MHVCVCVCVCVYMPVCVDACMCCEAGRPAFRSFLFSLCSDLGAVISLLLWGRQLFALYSGNDVTDISDDRFPKPPEIANGYVEHLFRYQCKNYYRLRTEGDGVYTLNDKKQWINKAVGDKLPECEAVCGKPKNPANPVQRILGGHLDAKGSFPWQAKMVSHHNLTTGATLINEQWLLTTAKNLFLNHSENATAKDIAPTLTLYVGKKQLVEIEKVVLHPNYHQVDIGLIKLKQKVLVNERVMPICLPSKNYAEVGRVGYVSGWGQSDNFKLTDHLKYVMLPVADQYDCITHYEGSTCPKWKAPKSPVGVQPILNEHTFCVGMSKYQEDTCYGDAGSAFAVHDLEEDTWYAAGILSFDKSCAVAEYGVYVKVTSIQHWVQKTIAEN
B3: Peroxiredoxin-1 (protein)
chain: SSGNAKIGHPAPNFKATAVMPDGQFKDISLSDYKGKYVVFFFYPLDFTFVCPTEIIAFSDRAEEFKKLNCQVIGASVDSHFCHLAWVNTPKKQGGLGPMNIPLVSDPKRTIAQDYGVLKADEGISFRGLFIIDDKGILRQITVNDLPVGRSVDETLRLVQAFQFTDKHGEVCPAGWKPGSDTIKPDVQKSKEYFSKQK
B4: Guanine deaminase (protein)
chain: MCAAQMPPLAHIFRGTFVHSTWTCPMEVLRDHLLGVSDSGKIVFLEEASQQEKLAKEWCFKPCEIRELSHHEFFMPGLVDTHIHASQYSFAGSSIDLPLLEWLTKYTFPAEHRFQNIDFAEEVYTRVVRRTLKNGTTTACYFATIHTDSSLLLADITDKFGQRAFVGKVCMDLNDTFPEYKETTEESIKETERFVSEMLQKNYSRVKPIVTPRFSLSCSETLMGELGNIAKTRDLHIQSHISENRDEVEAVKNLYPSYKNYTSVYDKNNLLTNKTVMAHGCYLSAEELNVFHERGASIAHCPNSNLSLSSGFLNVLEVLKHEVKIGLGTDVAGGYSYSMLDAIRRAVMVSNILLINKVNEKSLTLKEVFRLATLGGSQALGLDGEIGNFEVGKEFDAILINPKASDSPIDLFYGDFFGDISEAVIQKFLYLGDDRNIEEVYVGGKQVVPFSSSVKETIHLPASSPHPPPFP
B5: Apolipoprotein M (protein)
chain: MFHQIWAALLYFYGIILNSIYQCPEHSQLTTLGVDGKEFPEVHLGQWYFIAGAAPTKEELATFDPVDNIVFNMAAGSAPMQLHLRATIRMKDGLCVPRKWIYHLTEGSTDLRTEGRPDMKTELFSSSCPGGIMLNETGQGYQRFLLYNRSPHPPEKCVEEFKSLTSCLDSKAFLLTPRNQEACELSNN
B6: Serpin B12 (protein)
chain: MDSLVTANTKFCFDLFQEIGKDDRHKNIFFSPLSLSAALGMVRLGARSDSAHQIDEVLHFNEFSQNESKEPDPCLKSNKQKAGSLNNESGLVSCYFGQLLSKLDRIKTDYTLSIANRLYGEQEFPICQEYLDGVIQFYHTTIESVDFQKNPEKSRQEINFWVECQSQGKIKELFSKDAINAETVLVLVNAVYFKAKWETYFDHENTVDAPFCLNANENKSVKMMTQKGLYRIGFIEEVKAQILEMRYTKGKLSMFVLLPSHSKDNLKGLEELERKITYEKMVAWSSSENMSEESVVLSFPRFTLEDSYDLNSILQDMGITDIFDETRADLTGISPSPNLYLSKIIHKTFVEVDENGTQAAAATGAVVSERSLRSWVEFNANHPFLFFIRHNKTQTILFYGRVCSP
B7: Catalase (protein)
chain: ADSRDPASDQMQHWKEQRAAQKADVLTTGAGNPVGDKLNVITVGPRGPLLVQDVVFTDEMAHFDRERIPERVVHAKGAGAFGYFEVTHDITKYSKAKVFEHIGKKTPIAVRFSTVAGESGSADTVRDPRGFAVKFYTEDGNWDLVGNNTPIFFIRDPILFPSFIHSQKRNPQTHLKDPDMVWDFWSLRPESLHQVSFLFSDRGIPDGHRHMNGYGSHTFKLVNANGEAVYCKFHYKTDQGIKNLSVEDAARLSQEDPDYGIRDLFNAIATGKYPSWTFYIQVMTFNQAETFPFNPFDLTKVWPHKDYPLIPVGKLVLNRNPVNYFAEVEQIAFDPSNMPPGIEASPDKMLQGRLFAYPDTHRHRLGPNYLHIPVNCPYRARVANYQRDGPMCMQDNQGGAPNYYPNSFGAPEQQPSALEHSIQYSGEVRRFNTANDDNVTQVRAFYVNVLNEEQRKRLCENIAGHLKDAQIFIQKKAVKNFTEVHPDYGSHIQALLDKYNAEKPKNAIHTFVQSGSHLAAREKANL

The molecules below were run on High Density cholesterol (Chl Large) plaque particles (assay: Mass spectroscopy proteomics, semi-quantitative binding affinity of serum proteins (plaqueproteome, Table 2)). Details: higher number = stronger affinity.
Design: species or system human
Outline: (§1)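 Serum or plasma from atherosclerotic subjects, diluted to 50% in PBS, was incubated with cholesterol aggregates (30 μg per 1 mL reaction) at 37° C for 1 hr. Small and large cholesterol plaque particles were sorted by flow cytometry gating, trypsin-digested and analysed by MS/MS against a human UniProt database.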

Molecule	Semi-quantitative analysis of proteins binding to different plaque particles: Chl Large
B1	0
B2	15
B3	0
B4	0
B5	0
B6	0
B7	0

The molecules below were run on Low density cholesterol (Chl small) plaque particles in the same assay as above. Details: higher number = stronger affinity.
Design: species or system human
Outline: as §1

Molecule	Semi-quantitative analysis of proteins binding to different plaque particles: Chl small
B1	0
B2	12
B3	0
B4	0
B5	0
B6	0
B7	0

These molecules were tested on Tau plaque particles in the same assay as above. Details: higher number = stronger affinity.
Design: species or system human
Outline: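 Serum or plasma proteins captured on Thioflavin S-labelled Tau plaque particles (Tau-74, Tau-275 oligomers preformed in PBS at 37° C for 2 h; 1 h co-incubation at 37° C) were isolated by FACS sorting, then tryptically digested and identified by MS/MS (Sequest, human UniProt, strict trypsin).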

Molecule	Semi-quantitative analysis of proteins binding to different plaque particles: Tau
B1	1
B2	11
B3	0
B4	0
B5	0
B6	0
B7	0

The molecules below were run against T1, alpha-synuclein plaque particles (Homo sapiens, UniProt P37840) in the same assay as above. Details: higher number = stronger affinity.
T1 construct: 140 amino acids polypeptide
Outline: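 AD-subject plasma or serum (800 μL of 50%) mixed with 30 μg preformed alpha-synuclein aggregates for 1 h at 37 °C; Thioflavin S-positive particles isolated by flow sorting. After reduction, acrylamide alkylation and overnight tryptic digestion, serum proteins identified by MS/MS with Sequest and Scaffold.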

Molecule	Semi-quantitative analysis of proteins binding to different plaque particles: Synuclein
B1	0
B2	14
B3	0
B4	0
B5	0
B6	0
B7	0

The molecules below were run against T2, Abeta-42 plaque particles (Homo sapiens, UniProt P05067) in the same assay as above. Details: higher number = stronger affinity.
T2 construct: Abeta 1-42
Outline: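 AD patient serum or plasma (50% in PBS) was incubated with Abeta-42 aggregates (30 μg) for 1 h at 37 °C, then stained with Thioflavin S for 30 min. Labeled particles were FACS-sorted, trypsin/Lys-C digested overnight and analyzed by MS/MS. Sequest searched human UniProt; Scaffold/Protein Prophet validated the identifications.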

Molecule	Semi-quantitative analysis of proteins binding to different plaque particles: Abeta-42
B1	0
B2	11
B3	5
B4	5
B5	18
B6	2
B7	12

Source: patent publication US9618524B2, “Method, composition, isolation and identification of a plaque particle and related biomarker” (Plaxgen Inc., priority 2012, dated 2017)
